Target: FEM1B-EB-EC ternary complex (human) (UniProt Q9UK73)
Assay: SEC; peaks of the purified FEM1B-EB-EC complexes (Supplementary Fig. 1g); how the masses were found is not given

stoichiometry N: 2
Substance: FEM1B-EB-EC ternary complex (from UniProt Q9UK73 1-627; Q15370 1-118; Q15369 17-112)
